Our source for the stoichiometry N values is PMC2692910.

The assay addresses αB11.4, α-crystallin domain construct of human αB-Crystallin (human) (UniProt P02511). Nature of the assay: 15N NMR relaxation.

Take “αB11.4, α-crystallin domain construct of human αB-Crystallin (from UniProt P02511 57-158) (domain or fragment)”: the stoichiometry N was found to be 2.

By stoichiometry N is commonly meant a count of units in the complex or per binding partner.
